Measured values reported in paper doi:10.1101/2025.08.25.672245.

How the values were obtained:
[1] = target: firefly luciferase Fluc^K378C-K496C (Fluc^CDS1, C-terminal domain sensor) (firefly) [luciferase: P08659]; assay: single-molecule FRET within the labelled client
[2] = target: firefly luciferase Fluc^A12C-K329C (Fluc^NDS1, N-terminal domain sensor) (firefly) [luciferase: P08659]; assay: single-molecule FRET within the labelled client

percent of the time DnaK-bound (FRET < 0.3) after 15 min [1]: 15%
percent of the time DnaK-bound (FRET < 0.3) after 15 min [2]: 15%
Substance: DnaK (bacterial Hsp70) (from UniProt P0A6Y8 1-638) (natural protein)
